According to patent US11306156:
Values belong to the substance of their own block, whether it stands above or below them.

Columns and labels:
[1] = biological target: D3H44 light chain Q124E_S176L_T180E, N-terminal HA or FLAG tag; experiment: LCCA, L1:L2 DNA 1:9, SPR of light chain tags; competing light chain m12
[2] = biological target: D3H44 light chain Q124R_T178R, N-terminal HA or FLAG tag; experiment: LCCA, L1:L2 DNA 1:9, SPR of light chain tags; competing light chain m19
[3] = biological target: D3H44 light chain Q124E_S176L_T180E, N-terminal HA or FLAG tag; experiment: LCCA, L1:L2 DNA 1:3, SPR of light chain tags; competing light chain m12
[4] = biological target: D3H44 light chain Q124R_Q160K_T178R, N-terminal HA or FLAG tag; experiment: LCCA, L1:L2 DNA 1:3, SPR of light chain tags; competing light chain m18
[5] = biological target: D3H44 light chain Q124R_Q160K_T178R, N-terminal HA or FLAG tag; experiment: LCCA, L1:L2 DNA 1:9, SPR of light chain tags; competing light chain m18
[6] = biological target: D3H44 light chain Q124E_V133E, N-terminal HA or FLAG tag; experiment: LCCA, L1:L2 DNA 1:3, SPR of light chain tags; competing light chain m14
[7] = biological target: D3H44 light chain Q124R_T178R, N-terminal HA or FLAG tag; experiment: LCCA, L1:L2 DNA 1:3, SPR of light chain tags; competing light chain m19
[8] = biological target: D3H44 light chain Q124E_V133E, N-terminal HA or FLAG tag; experiment: LCCA, L1:L2 DNA 1:9, SPR of light chain tags; competing light chain m14
[9] = biological target: D3H44 light chain Q124R, N-terminal HA or FLAG tag; experiment: LCCA, L1:L2 DNA 1:3, SPR of light chain tags; competing light chain m18
[10] = biological target: D3H44 light chain Q124E_V133E, N-terminal HA or FLAG tag; experiment: LCCA, L1:L2 DNA 1:9, SPR of light chain tags; competing light chain m17
[11] = biological target: D3H44 light chain Q124R, N-terminal HA or FLAG tag; experiment: LCCA, L1:L2 DNA 1:9, SPR of light chain tags; competing light chain m18
[12] = biological target: D3H44 light chain Q124E_V133E, N-terminal HA or FLAG tag; experiment: LCCA, L1:L2 DNA 1:3, SPR of light chain tags; competing light chain m17
[13] = biological target: D3H44 light chain Q124E_Q160E_T180E, N-terminal HA or FLAG tag; experiment: LCCA, L1:L2 DNA 1:9, SPR of light chain tags; competing light chain m12
[14] = biological target: D3H44 light chain Q124R_T178R, N-terminal HA or FLAG tag; experiment: LCCA, L1:L2 DNA 1:3, SPR of light chain tags; competing light chain m11
[15] = biological target: D3H44 light chain Q124R_T178K, N-terminal HA or FLAG tag; experiment: as above
[16] = biological target: D3H44 light chain Q124K_T178R, N-terminal HA or FLAG tag; experiment: as above
[17] = biological target: D3H44 light chain Q124E_T180E, N-terminal HA or FLAG tag; experiment: LCCA, L1:L2 DNA 1:3, SPR of light chain tags; competing light chain m12
[18] = biological target: D3H44 light chain Q124E_Q160E_T180E, N-terminal HA or FLAG tag; experiment: as above
[19] = biological target: D3H44 light chain Q124R_T178R, N-terminal HA or FLAG tag; experiment: LCCA, L1:L2 DNA 1:3, SPR of light chain tags; competing light chain m13
[20] = biological target: D3H44 light chain T178R, N-terminal HA or FLAG tag; experiment: as above
[21] = biological target: D3H44 light chain Q124K_T178R, N-terminal HA or FLAG tag; experiment: as above
[22] = biological target: D3H44 light chain Q124R_Q160K_T178R, N-terminal HA or FLAG tag; experiment: as above
[23] = biological target: D3H44 light chain Q124E_T180E, N-terminal HA or FLAG tag; experiment: LCCA, L1:L2 DNA 1:3, SPR of light chain tags; competing light chain m14
[24] = biological target: D3H44 light chain Q124R_T178R, N-terminal HA or FLAG tag; experiment: LCCA, L1:L2 DNA 1:9, SPR of light chain tags; competing light chain m11
[25] = biological target: D3H44 light chain Q124R_T178K, N-terminal HA or FLAG tag; experiment: as above
[26] = biological target: D3H44 light chain Q124K_T178R, N-terminal HA or FLAG tag; experiment: as above
[27] = biological target: D3H44 light chain Q124E_T180E, N-terminal HA or FLAG tag; experiment: LCCA, L1:L2 DNA 1:3, SPR of light chain tags; competing light chain m15
[28] = biological target: D3H44 light chain Q124E_Q160E_T180E, N-terminal HA or FLAG tag; experiment: as above
[29] = biological target: D3H44 light chain Q124E_Q160E_T180E, N-terminal HA or FLAG tag; experiment: LCCA, L1:L2 DNA 1:9, SPR of light chain tags; competing light chain m16
[30] = biological target: D3H44 light chain Q124E_Q160E_T180E, N-terminal HA or FLAG tag; experiment: LCCA, L1:L2 DNA 1:9, SPR of light chain tags; competing light chain m15
[31] = biological target: D3H44 light chain Q124E_T180E, N-terminal HA or FLAG tag; experiment: LCCA, L1:L2 DNA 1:3, SPR of light chain tags; competing light chain m10
[32] = biological target: D3H44 light chain Q124E_Q160E_T180E, N-terminal HA or FLAG tag; experiment: LCCA, L1:L2 DNA 1:3, SPR of light chain tags; competing light chain m16
[33] = biological target: D3H44 light chain T178R, N-terminal HA or FLAG tag; experiment: LCCA, L1:L2 DNA 1:3, SPR of light chain tags; competing light chain m11
[34] = biological target: D3H44 light chain Q124E_Q160E_T178E, N-terminal HA or FLAG tag; experiment: LCCA, L1:L2 DNA 1:3, SPR of light chain tags; competing light chain m14
[35] = biological target: D3H44 light chain T178R, N-terminal HA or FLAG tag; experiment: LCCA, L1:L2 DNA 1:9, SPR of light chain tags; competing light chain m11
[36] = biological target: D3H44 light chain Q124E_Q160E_T180E, N-terminal HA or FLAG tag; experiment: LCCA, L1:L2 DNA 1:3, SPR of light chain tags; competing light chain m10
[37] = biological target: D3H44 light chain Q124E_Q160E_T180E, N-terminal HA or FLAG tag; experiment: LCCA, L1:L2 DNA 1:9, SPR of light chain tags; competing light chain m10
[38] = biological target: D3H44 light chain Q124R_Q160K_T178R, N-terminal HA or FLAG tag; experiment: LCCA, L1:L2 DNA 1:3, SPR of light chain tags; competing light chain m20

H1L1:H1L2 normalized median ratio [1]: 10 share of 100
H1L1:H1L2 normalized median ratio [2]: 90 share of 100
H1L1:H1L2 normalized median scalar value ln(r1/f1) [2]: 2.25
H1L1:H1L2 normalized median ratio [3]: 13 share of 100
H1L1:H1L2 normalized median ratio [4]: 89 share of 100
H1L1:H1L2 normalized median scalar value ln(r1/f1) [4]: 2.06
H1L1:H1L2 normalized median ratio [5]: 87 share of 100
H1L1:H1L2 normalized median scalar value ln(r1/f1) [5]: 1.86
H1L1:H1L2 normalized median ratio [6]: 11 share of 100
H1L1:H1L2 normalized median ratio [7]: 87 share of 100
H1L1:H1L2 normalized median scalar value ln(r1/f1) [7]: 1.9
H1L1:H1L2 normalized median ratio [8]: 13 share of 100
Substance: D3H44 Fab heavy chain L143E_K145T_Q179E_S188L, C-terminal ABD2-His6 tag

H2L2:H2L1 normalized median ratio [9]: 4 share of 100
H2L2:H2L1 normalized median ratio [4]: 4 share of 100
H2L2:H2L1 normalized median ratio [10]: 74 share of 100
H2L2:H2L1 normalized median ratio [11]: 26 share of 100
H2L2:H2L1 normalized median ratio [5]: 7 share of 100
H2L2:H2L1 normalized median ratio [6]: 96 share of 100
H2L2:H2L1 normalized median ratio [12]: 96 share of 100
H2L2:H2L1 normalized median ratio [8]: 93 share of 100
Substance: D3H44 Fab heavy chain L143R, C-terminal ABD2-His6 tag

H2L2:H2L1 normalized median ratio [13]: 90 share of 100
H2L2:H2L1 normalized median ratio [14]: 12 share of 100
H2L2:H2L1 normalized median ratio [15]: 11 share of 100
H2L2:H2L1 normalized median ratio [16]: 8 share of 100
H2L2:H2L1 normalized median ratio [17]: 96 share of 100
H2L2:H2L1 normalized median ratio [3]: 96 share of 100
H2L2:H2L1 normalized median ratio [18]: 88 share of 100
H2L2:H2L1 normalized median ratio [19]: 4 share of 100
H2L2:H2L1 normalized median ratio [20]: 4 share of 100
H2L2:H2L1 normalized median ratio [21]: 4 share of 100
H2L2:H2L1 normalized median ratio [22]: 4 share of 100
H2L2:H2L1 normalized median ratio [23]: 96 share of 100
H2L2:H2L1 normalized median ratio [24]: 10 share of 100
H2L2:H2L1 normalized median ratio [25]: 7 share of 100
H2L2:H2L1 normalized median ratio [26]: 10 share of 100
H2L2:H2L1 normalized median ratio [27]: 96 share of 100
H2L2:H2L1 normalized median ratio [28]: 92 share of 100
H2L2:H2L1 normalized median ratio [29]: 93 share of 100
H2L2:H2L1 normalized median ratio [7]: 4 share of 100
H2L2:H2L1 normalized median ratio [30]: 90 share of 100
H2L2:H2L1 normalized median ratio [31]: 96 share of 100
H2L2:H2L1 normalized median ratio [32]: 89 share of 100
Substance: D3H44 Fab heavy chain Q179K, C-terminal ABD2-His6 tag

H2L2:H2L1 normalized median ratio [1]: 91 share of 100
H2L2:H2L1 normalized median ratio [2]: 9 share of 100
H2L2:H2L1 normalized median ratio [33]: 9 share of 100
H2L2:H2L1 normalized median ratio [15]: 8 share of 100
H2L2:H2L1 normalized median ratio [17]: 94 share of 100
H2L2:H2L1 normalized median ratio [3]: 96 share of 100
H2L2:H2L1 normalized median ratio [19]: 6 share of 100
H2L2:H2L1 normalized median ratio [20]: 4 share of 100
H2L2:H2L1 normalized median ratio [22]: 3 share of 100
H2L2:H2L1 normalized median ratio [23]: 97 share of 100
H2L2:H2L1 normalized median ratio [34]: 99 share of 100
H2L2:H2L1 normalized median ratio [35]: 13 share of 100
H2L2:H2L1 normalized median ratio [7]: 4 share of 100
H2L2:H2L1 normalized median ratio [31]: 96 share of 100
H2L2:H2L1 normalized median ratio [36]: 91 share of 100
H2L2:H2L1 normalized median ratio [37]: 87 share of 100
H2L2:H2L1 normalized median ratio [32]: 92 share of 100
H2L2:H2L1 normalized median ratio [38]: 1 share of 100
Substance: D3H44 Fab heavy chain S186K, C-terminal ABD2-His6 tag
